# B1: CDC14A (parent)
# chain: LWVQGDIFRSKLKNRPSSEGSINK
# B2: CCDC70 (parent)
# chain: FSFKVSRWMGLACFRSLAASSPSI
# Variants of: B1
# Assay: protein stability index of a GFP-peptide fusion (GPS, HEK-293T) (PSI 1-6); higher = more stable
# Details: c terminus: a fixed tail appended
# 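Further: lentivirally expressed fusions sorted by FACS into six bins by GFP to DsRed ratio, PSI derived from sequencing read proportions per bin multiplied by bin number.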
row,Variant,protein stability index
1,R15V,2.78
2,R15W,2.25
3,R15S,2.66
4,R15T,3.26
5,R15Y,3.17
6,S18R,2.42
7,S18T,2.45
8,S18G,4.75
9,S18L,3.55
10,S18H,3.27
11,S18E,3.11
12,S18Y,2.01
13,S18V,2.25
14,S18C,3.17
15,S18I,1.84
16,S18F,2.37
17,S18W,1.46
18,S18A,2.58
19,S18D,3.11
20,S18K,2.59
21,S18M,1.8
22,S18Q,2.39
23,S18N,2.54
24,S18P,1.91
25,P16H,2.52

row,Variant,protein stability index
1,P16F,2.49
2,P16C,1.92
3,P16S,2.52
4,P16E,3.38
5,P16L,1.57
6,P16Y,1.91
7,P16W,1.74
8,P16A,2.8
9,P16R,2.7
10,P16I,2.36
11,P16D,2.89
12,P16Q,2.5
13,P16K,2.68
14,P16V,1.64
15,P16T,2.6
16,P16G,2.02
17,P16M,2.17
18,P16N,2.51
19,E19C,2.44
20,E19A,2.33
21,E19Y,1.58
22,E19P,1.95
23,E19W,1.88
24,E19R,2.35
25,E19V,2.17

row,Variant,protein stability index
1,E19M,2.02
2,E19I,2.24
3,E19K,2.21
4,E19N,2.48
5,E19S,2.29
6,E19L,1.97
7,E19T,1.88
8,E19D,2.88
9,E19Q,2.49
10,E19G,2.24
11,E19F,1.7
12,E19H,2.36
13,N23M,2.15
14,N23H,2.65
15,N23D,2.8
16,N23Q,2.31
17,N23Y,1.91
18,N23F,1.45
19,N23A,2.08
20,N23I,2.15
21,N23T,3.06
22,N23G,3.05
23,N23R,2.4
24,N23S,2.96
25,N23C,2.17

row,Variant,protein stability index
1,N23W,2.8
2,N23P,3.06
3,N23E,2.89
4,N23K,2.69
5,N23L,2.1
6,S21T,3.13
7,S21N,2.18
8,S21E,3.65
9,S21P,3.06
10,S21F,2.46
11,S21H,2.41
12,S21R,1.73
13,S21Q,3.15
14,S21Y,2.22
15,S21D,4.21
16,S21K,2.42
17,S21L,2.24
18,S21V,2.41
19,S21W,2.42
20,S21G,2.84
21,S21C,2.64
22,S21M,2.15
23,S21A,2.77
24,S21I,2.08
25,S17I,2.08

row,Variant,protein stability index
1,S17N,3.48
2,S17W,2.17
3,S17D,2.85
4,S17C,2.89
5,S17E,2.43
6,S17Q,2.05
7,S17F,1.66
8,S17L,2.63
9,S17P,2.41
10,S17V,2.47
11,S17H,2.77
12,S17M,1.83
13,S17Y,2.08
14,S17T,2.82
15,S17K,2.45
16,S17A,3.12
17,S17G,2.87
18,K24E,2.73
19,K24M,2.08
20,K24P,2.46
21,K24I,1.8
22,K24W,2.47
23,K24Q,2.41
24,K24L,1.91
25,K24R,2.52

row,Variant,protein stability index
1,K24S,2.37
2,K24G,2.26
3,K24V,1.63
4,K24Y,1.73
5,K24N,2.79
6,K24A,2.31
7,K24C,1.93
8,K24F,1.75
9,K24D,2.79
10,K24T,2.83
11,K24H,2.06
12,G20S,2.58
13,G20D,2.64
14,G20E,3.9
15,G20I,2.61
16,G20W,2.03
17,G20A,2.06
18,G20P,2.04
19,G20T,2.85
20,G20Q,2.61
21,G20H,2.74
22,G20V,2.23
23,G20R,2.76
24,G20F,2.3
25,G20C,2.82

row,Variant,protein stability index
1,G20M,2.73
2,G20N,2.76
3,G20L,2.69
4,G20K,3.44
5,I22V,2.81
6,I22Q,2.71
7,I22P,2.63
8,I22L,2.79
9,I22R,3.2
10,I22G,3.21
11,I22N,3.05
12,I22E,2.97
13,I22W,2.33
14,I22H,3.32
15,I22D,3.2
16,I22T,3.39
17,I22A,3.1
18,I22K,2.06
19,I22C,2.59
20,I22Y,2.85
21,I22S,3.88
22,I22M,3.02
23,I22F,2.51

# Variants of: B2
# Assay: as above
# Details: c terminus: a fixed tail appended
row,Variant,protein stability index
1,R7D,2.9
2,R7Y,2.52
3,R7Q,2.19
4,R7I,4.23
5,R7C,3.09
6,R7H,3.25
7,R7F,2.69
8,R7M,2.33
9,R7K,2.3
10,R7N,2.53
11,R7E,3.4
12,R7V,3.67
13,R7G,1.65
14,R7S,2.14
15,R7A,2.22
16,R7W,3.02
17,M9A,2.28
18,M9D,4.03
19,M9F,2.95
20,M9E,2.5
21,M9K,2.21
22,M9I,4.43
23,M9H,2.8

row,Variant,protein stability index
1,M9N,2.15
2,M9C,3.07
3,M9L,4.57
4,M9Y,3.2
5,M9P,1.36
6,F3N,2.5
7,F3V,1.38
8,F3L,4.25
9,F3H,1.87
10,F3E,2.21
11,F3C,2.74
12,F3K,1.39
13,F3I,2.92
14,F3P,2.57
15,F3S,2.6
16,F3Q,1.92
17,F3A,3.33
18,F3T,1.83
19,F3W,1.82
20,F3R,3.02
21,F3D,1.63
22,V5T,2.77
23,V5R,3.55

row,Variant,protein stability index
1,V5H,2
2,V5P,2.21
3,V5F,2.74
4,V5K,2.28
5,V5G,2.54
6,V5A,3.24
7,V5E,1.29
8,V5W,2.13
9,V5N,2.78
10,V5M,2.01
11,V5D,1.73
12,V5Q,3.04
13,V5Y,2.98
14,V5I,1.72
15,V5L,2.22
16,V5C,2.92
17,S6D,2.35
18,S6W,3.02
19,S6G,2.88
20,S6N,3.31
21,S6Q,3.43
22,S6Y,2.88
23,S6P,2.51

row,Variant,protein stability index
1,S6F,1.69
2,S6L,2.29
3,S6I,2.7
4,S6M,2.17
5,S6K,2.24
6,S6T,2.43
7,S6V,4.41
8,S6R,2.09
9,S6E,3.26
10,S6A,2.99
11,S6C,2.82
12,S2T,2.69
13,S2G,1.56
14,S2F,3.87
15,S2Y,2.62
16,S2I,3.26
17,S2Q,3.39
18,S2P,2.37
19,S2M,2.1
20,S2R,1.49
21,S2K,2.59
22,S2D,2.19
23,S2A,1.82

row,Variant,protein stability index
1,S2H,1.33
2,S2V,1.84
3,S2C,3.54
4,S2N,2.32
5,G10K,3.17
6,G10D,3.79
7,G10E,3.35
8,G10F,1.86
9,G10R,2.37
10,G10M,4.54
11,G10N,3.79
12,G10C,1.55
13,G10A,3.75
14,G10V,2.36
15,G10S,2.98
16,G10W,3.9
17,G10P,4.98
18,F1K,2.46
19,F1N,2.35
20,F1Y,2.33
21,F1E,3.1
22,F1R,2.08
23,F1S,1.38

row,Variant,protein stability index
1,F1L,4.16
2,F1A,2.36
3,F1T,2.53
4,F1C,2.38
5,F1W,2.34
6,F1P,2.2
7,F1I,1.68
8,F1Q,2.12
9,F1D,1.25
10,F1M,4.47
11,F1G,2.57
12,W8E,1.29
13,W8D,1.76
14,W8S,2.08
15,W8R,1.81
16,W8V,3.21
17,W8T,2.58
18,W8P,2.4
19,W8F,4.12
20,W8G,3.55
21,W8Q,3.47
22,W8K,2.29
23,W8C,2.07

row,Variant,protein stability index
1,W8H,2.82
2,W8Y,3.02
3,W8A,1.12
4,W8I,2.9
5,W8M,1.77
6,W8L,3.27
7,K4Y,3.24
8,K4N,2.51
9,K4A,2.38
10,K4W,4.77
11,K4R,2.22
12,K4P,1.65
13,K4L,3.31
14,K4M,2.34
15,K4G,2.99
16,K4I,3.39
17,K4V,3.11
18,K4E,1.92
19,K4C,3.35
20,K4D,3.56
21,K4H,2.73
22,K4S,3.25
23,K4T,2.38

# Reference: the supplement of paper PMC10567573
